Settings in all cases: modification not given
Assay [1] addresses LgTrip 3546 (with His tag; SEQ ID NO: 51). The assay is described as follows: luminescence complementation; SmTrip9 Kd.
For assay [2] the target is unchanged. The assay is described as follows: luminescence complementation; SmTrip9 Kd. This is another data set of the same source.
Assay [3] has the same target. The assay is described as follows: luminescence complementation.
For assay [4] the target is unchanged. The assay is described as follows: luminescence complementation. This is another data set of the same source.
Assay [5] has the same target. The assay can be described thus: luminescence complementation; SmTrip9 Kd. The source holds these as a separate data set.

Sequence of LgTrip 3546 (with His tag; SEQ ID NO: 51) (chain, as listed by the source): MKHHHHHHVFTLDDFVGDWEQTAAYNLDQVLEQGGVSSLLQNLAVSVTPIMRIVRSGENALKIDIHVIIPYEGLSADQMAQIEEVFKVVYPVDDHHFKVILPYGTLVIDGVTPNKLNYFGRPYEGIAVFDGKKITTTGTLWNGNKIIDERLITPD

As for DKLLFTVTIQKWK [756], the Kd (usually the concentration at which binding is half-saturated) in assay [1] is 950 nM; in assay [2], 480 nM.

As for GKMLFRVTINSYK [620], the Kd in assay [3] was 190 nM; in assay [4], 120 nM.

With DKMLFTVTIQKWK [745], the Kd in assay [3] stood at 160 nM; in assay [1] it was 200 nM; in assay [5] it was 300 nM.

The record behind these values is patent US20200270586A1.
